Assay results from paper PMC3749868, “Proteolytic processing of QSOX1A ensures efficient secretion of a potent disulfide catalyst” (Biochemical Journal, 2013).
Each block holds one molecule with its values, some of them ahead of it.

How the values were obtained:
[1] = biological target: cleaved QSOX1A (soluble product of the proteolytic processing of QSOX1A–V5, without the TM domain and the V5 tag) (human); experiment: SEC; cell lysate (2% DDM) of the QSOX1A–V5 cell line, Sephadex 200 PC3.2/30 column, 50 mM Tris/HCl pH 7.5, 150 mM NaCl, 1 mM EDTA, 0.02% DDM; fractions analysed by Western blot (anti-V5, anti-QSOX1A)
[2] = biological target: cleaved QSOX1A (soluble product of the proteolytic processing of QSOX1A–V5, without the TM domain and the V5 tag) (human); experiment: SEC; protein secreted for 3 h into serum-free medium, concentrated and buffer-exchanged (gel-filtration buffer with 0.03% Triton X-100 by the legend, 0.02% DDM by the methods), S200 PC3.2/30 column; fractions analysed by Western blot
[3] = biological target: QSOX1B–V5 (quiescin sulfhydryl oxidase 1, splice variant B, V5-tagged) (human) (UniProt O00391); experiment: as above
[4] = biological target: the molecule itself; experiment: cross-linking; thiol-specific cross-linker BMH, 0.1 mM, added to intact cells in KHM buffer, 30 min on ice, stopped with 20 mM DTT; lysates analysed by Western blot or by immunoisolation (anti-V5–agarose, then anti-QSOX1A) of radiolabelled proteins; MS of the cross-linked product (results not shown)

stoichiometry N [1]: 2
stoichiometry N [2]: 2
Molecule: cleaved QSOX1A (soluble product of the proteolytic processing of QSOX1A–V5, without the TM domain and the V5 tag) (domain or fragment)

stoichiometry N [3]: 2
Molecule: QSOX1B–V5 (quiescin sulfhydryl oxidase 1, splice variant B, V5-tagged) (from UniProt O00391-2 30-604) (enzyme)

B1: QSOX1A–V5 (quiescin sulfhydryl oxidase 1, splice variant A, V5-tagged, uncleaved) (enzyme, human, UniProt O00391 30-747, looked up)
chain: APRSALYSPSDPLTLLQADTVRGAVLGSRSAWAVEFFASWCGHCIAFAPTWKALAEDVKAWRPALYLAALDCAEETNSAVCRDFNIPGFPTVRFFKAFTKNGSGAVFPVAGADVQTLRERLIDALESHHDTWPPACPPLEPAKLEEIDGFFARNNEEYLALIFEKGGSYLGREVALDLSQHKGVAVRRVLNTEANVVRKFGVTDFPSCYLLFRNGSVSRVPVLMESRSFYTAYLQRLSGLTREAAQTTVAPTTANKIAPTVWKLADRSKIYMADLESALHYILRIEVGRFPVLEGQRLVALKKFVAVLAKYFPGRPLVQNFLHSVNEWLKRQKRNKIPYSFFKTALDDRKEGAVLAKKVNWIGCQGSEPHFRGFPCSLWVLFHFLTVQAARQNVDHSQEAAKAKEVLPAIRGYVHYFFGCRDCASHFEQMAAASMHRVGSPNAAVLWLWSSHNRVNARLAGAPSEDPQFPKVQWPPRELCSACHNERLDVPVWDVEATLNFLKAHFSPSNIILDFPAAGSAARRDVQNVAAAPELAMGALELESRNSTLDPGKPEMMKSPTNTTPHVPAEGPEASRPPKLHPGLRAAPGQEPPEHMAELQRNEQEQPLGQWHLSKRDTGAALLAESRAEKNRLWGPLEVRRVGRSSKQLVDIPEGQLEARAGRGRGQWLQVLGGGFSYLDISLCVGLYSLSFMGLLAMYTYFQAKIRALKGHAGHPAA
notes: human QSOX1A, the long splice variant of QSOX1 with 143 additional C-terminal amino acids including the single-pass TM domain; uncleaved (full-length) form; Membrane-integrated, V5 on the cytosolic side; also called V5-tagged QSOX1A; uncleaved QSOX1A–V5; source: HT1080, stably overexpressing (cross-linking in cells, SEC of lysate); HT1080, transiently co-transfected, in lysate (co-assembly); not …
stoichiometry N [4]: 2
